Results from CN117069831A (SHENZHEN BGI LIFE SCIENCE RES INSTITUTE, dated 2023).
Where a chain is given by its changes, count along the chain named.

Legend:
非典SARS-CoV-1 spike RBD = biological target: T1, 非典SARS-CoV-1 spike RBD (SARS-CoV-1, UniProt P59594 306-527); assay: ELISA on coated antigen, anti HA HRP
T1 construct: domain: RBD; also called 非典病毒RBD; 非典SARS-CoV-1RBD

野生型SARS-CoV-2 S1抗原 = biological target: T2, 野生型SARS-CoV-2 S1抗原 (SARS-CoV-2, UniProt P0DTC2 16-685); assay: SPR, Biacore T200, antigen coupled to CM5 chip, nanobody as analyte
T2 construct: domain: S1; also called SARS-CoV-2S1野生型; S1抗原(义翘)

B1: R-30 (VHH)
VHH: QVQLQESGGGLVQSGGSLRLSCTASGGIIRLNSMGWYRQAPGKQREPVATIVSDVGTNYADSVKGRFTISRDNAKNTIYLQMNSLKFEDTAVYYCVADRAFVLRGEYEYWGQGTQVTVSS
notes: also called 第一株RBD纳米抗体R-30
EC50 (非典SARS-CoV-1 spike RBD): 14.7 nM
Kd (野生型SARS-CoV-2 S1抗原): ~0.1 nM

B2: S1-51 (VHH)
VHH: B1 VHH with T23A, I28V, I29S, P47L, V52I, K75A, I78V
notes: also called 第三株RBD纳米抗体S1-51
EC50 (非典SARS-CoV-1 spike RBD): 19.2 nM
Kd (野生型SARS-CoV-2 S1抗原): ~0.1 nM

B3: S1-28 (VHH)
VHH: B1 VHH with S14P, L85P
notes: also called 第二株RBD纳米抗体S1-28
EC50 (非典SARS-CoV-1 spike RBD): 11.4 nM
Kd (野生型SARS-CoV-2 S1抗原): ~0.1 nM

B4: S1-24 (VHH)
VHH: B1 VHH with T23A, I28V, I29S, P41Q, P47L, S53N, K75A, I78V, Q81L, Y94N
notes: also called 第四株RBD纳米抗体S1-24
EC50 (非典SARS-CoV-1 spike RBD): 49.3 nM
Kd (野生型SARS-CoV-2 S1抗原): ~0.1 nM
